Assay results: paper PMC7913761

T1: IRF4 DBD WT (human, UniProt Q15306 21-130)
T1 sequence: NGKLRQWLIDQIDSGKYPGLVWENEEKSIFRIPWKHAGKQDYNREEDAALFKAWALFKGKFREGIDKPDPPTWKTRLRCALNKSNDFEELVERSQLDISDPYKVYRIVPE

T2: IRF4 DBD L116R (human, UniProt Q15306 21-130, L116R)
T2 sequence: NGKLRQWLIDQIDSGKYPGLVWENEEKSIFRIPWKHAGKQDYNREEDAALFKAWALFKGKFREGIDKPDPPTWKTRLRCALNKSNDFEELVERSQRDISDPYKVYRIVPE

T3: IRF4 DBD K59A (human, UniProt Q15306 21-130, K59A)
T3 sequence: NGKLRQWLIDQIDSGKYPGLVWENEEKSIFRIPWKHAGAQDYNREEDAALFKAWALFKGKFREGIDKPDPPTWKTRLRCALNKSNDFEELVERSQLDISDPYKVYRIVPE


Tests used:
Assay in all cases: SPR
IRF4 DBD WT = biological target: T1, IRF4 DBD WT
IRF4 DBD L116R = biological target: T2, IRF4 DBD L116R
IRF4 DBD K59A = biological target: T3, IRF4 DBD K59A

| Binder | Kd (IRF4 DBD WT) | Kd (IRF4 DBD L116R) | Kd (IRF4 DBD K59A) |
| --- | --- | --- | --- |
| AICE1 (dsDNA) DNA 1: TAGTGCAGAAATGAGTCAGAGA DNA 2: TCTCTGACTCATTTCTGCACTA | 2800 ± 480 nM | 2210 ± 30 nM | – |
| EICE1 (dsDNA) DNA 1: TAAAAGGAAGTGAAACCAAG DNA 2: CTTGGTTTCACTTCCTTTTA | 260 ± 70 nM | 60 ± 60 nM | – |
| ISRE (SPR) (dsDNA) DNA 1: CAACTGAAACCGAGAAAGC DNA 2: GCTTTCTCGGTTTCAGTTG | 250 ± 150 nM | 60 ± 40 nM | 660 ± 100 nM |
| AICE2 (dsDNA) DNA 1: GAGGTTTCGGGATGACTAATACT DNA 2: AGTATTAGTCATCCCGAAACCTC | 1380 ± 510 nM | – | – |
